From patent US20230059489A1 (Pfizer, published 2023)

T1: mouse FLT3 (mFlt3) (mouse (printed as mFlt3), UniProt Q00342 28-544, limits assumed)
T1 construct: Construct not described
T1 sequence (looked up): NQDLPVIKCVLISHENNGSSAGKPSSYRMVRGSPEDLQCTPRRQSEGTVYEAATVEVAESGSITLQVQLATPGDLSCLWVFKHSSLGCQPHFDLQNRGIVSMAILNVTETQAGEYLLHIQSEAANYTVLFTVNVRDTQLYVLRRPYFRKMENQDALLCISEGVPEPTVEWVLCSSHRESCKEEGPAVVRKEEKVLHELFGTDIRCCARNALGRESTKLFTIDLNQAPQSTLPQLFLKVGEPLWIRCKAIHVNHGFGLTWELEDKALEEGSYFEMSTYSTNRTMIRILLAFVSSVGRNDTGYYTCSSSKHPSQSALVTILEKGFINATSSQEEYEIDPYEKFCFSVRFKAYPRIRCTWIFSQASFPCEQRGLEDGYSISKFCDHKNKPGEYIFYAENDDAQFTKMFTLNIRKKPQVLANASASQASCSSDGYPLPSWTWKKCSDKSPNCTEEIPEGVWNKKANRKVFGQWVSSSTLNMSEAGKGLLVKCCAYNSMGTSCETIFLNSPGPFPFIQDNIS

T2: human FLT3 (hFLT3) (human, UniProt P36888 27-543)
T2 construct: also called huFlt3; Fms-Like Tyrosine Kinase 3
T2 sequence (looked up): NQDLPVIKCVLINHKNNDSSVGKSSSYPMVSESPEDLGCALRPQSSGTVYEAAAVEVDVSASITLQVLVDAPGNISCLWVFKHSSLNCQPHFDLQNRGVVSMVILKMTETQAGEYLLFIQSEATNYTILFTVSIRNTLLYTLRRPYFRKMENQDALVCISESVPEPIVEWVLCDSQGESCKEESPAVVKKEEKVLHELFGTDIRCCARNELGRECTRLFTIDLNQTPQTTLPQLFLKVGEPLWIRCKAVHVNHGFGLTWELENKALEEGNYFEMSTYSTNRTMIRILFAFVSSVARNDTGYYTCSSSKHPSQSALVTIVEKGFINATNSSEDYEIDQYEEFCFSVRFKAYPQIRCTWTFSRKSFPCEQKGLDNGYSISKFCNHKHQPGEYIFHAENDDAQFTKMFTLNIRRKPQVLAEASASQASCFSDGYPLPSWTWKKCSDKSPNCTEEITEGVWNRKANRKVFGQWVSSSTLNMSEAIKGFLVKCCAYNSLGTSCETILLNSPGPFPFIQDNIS


How the values were obtained:
mouse FLT3 (mFlt3) = target: T1, mouse FLT3 (mFlt3); test: SPR, Table 6, IgG format, mFlt3 column; set-up for mFlt3 not described
human FLT3 (hFLT3) = target: T2, human FLT3 (hFLT3); test: SPR (Biacore T200), 37 C; IgG captured on anti-human Fc, hFLT3 as analyte
Description: All experiments were performed on a Biacore T200 surface Plasmon resonance biosensor (GE Lifesciences, Piscataway N.J.).
The sensor chip preparation was performed at 25° C. with a running buffer of 10 mM HEPES, 150 mM NaCl, 0.05% (v/v) Tween-20, pH 7.4. An anti-human Fc sensor chip was made by activating all flow cells of a Biacore CM4 sensor chip with a 1:1 (v/v) mixture of 400 mM EDC and 100 mM NHS for 7 minutes, at a flow rate of 10 μL/min. An anti-human Fc reagent (Goat Anti-Human IgG Fc, Southern Biotech Catalog #2081-01) was diluted to 30 μg/mL in 10 mM Sodium Acetate pH 4.5 and injected on all flow cells for 7 minutes at 20 μL/min. All flow cells were blocked with 100 mM ethylenediamine in 150 mM Borate buffer pH 8.5 for 7 minutes at 10 μL/min.
The experiments were performed at 37° C. using a running buffer of 10 mM HEPES, 150 mM NaCl, 0.05% (v/v) Tween-20, pH 7.4, 1 mg/mL BSA. FLT3 antibodies were captured from undiluted supernatants onto downstream flow cells (flow cells 2, 3 and 4) at a flow rate of 10 μL/min for 1 minute. Different antibodies were captured on each flow cell. Flow cell 1 was used as a reference surface. Following capture of FLT3 antibodies, analyte (buffer, hFLT3) was injected at 30 μL/min on all flow cells for two minutes. After the analyte injection, dissociation was monitored for 10 minutes followed by regeneration of all flow cells with three 1-minute injections of 75 mM Phosphoric Acid. For each captured FLT3 antibody, the following analyte injections were performed: buffer, 11 nM hFLT3, 33 nM hFLT3, 100 nM hFLT3 and 300 nM hFLT3. Buffer cycles were collected for each captured FLT3 antibody for double-referencing purposes (double-referencing as described in Myszka, D. G. Improving biosensor analysis. J. Mol. Recognit. 12, 279-284 (1999)). The double-referenced sensorgrams were fit globally to a simple 1:1 Langmuir with mass transport binding model.

Row | Binder | Kd (mouse FLT3 (mFlt3)) | Kd (human FLT3 (hFLT3)) | koff (human FLT3 (hFLT3)) | kon (human FLT3 (hFLT3)) | t1/2 (human FLT3 (hFLT3))
1 | P9B5 (IgG format) (antibody, V domains shown, IgG format, captured by anti-human Fc) VH: EVQLLESGGGLVQPGGSLRLSCAASGFIFASYAMSWVRQAPGKGLEWVSEISSSGGSTTYADSVKGRFTISRDNSKNTLYLQMNSLRAEDTAVYYCARDRVMAGLGYDPFDYWGQGTLVTVSS VL: not shown | 1.5 nM | 11 nM | 0.00047 s⁻¹ | 42000 M⁻¹ s⁻¹ | 24.4 min
2 | P5A3 (IgG format) (antibody, V domains shown, IgG format, captured by anti-human Fc) VH: QVQLVQSGAEVKKPGSSVKVSCKASGGTFSSYYIGWVRQAPGQGLEWMGGIIPWFGTANYAQKFQGRVTITADKSTNTAYMELSSLRSEDTAVYYCAADHHDSPSGYTSGGFDVWGQGTLVTVSS VL: QSALTQPASVSGSPGQSITISCTGTSSDVGGYNYVSWYQQHPGKAPKLMIYEVSKRPSGVPDRFSGSKSGNTASLTVSGLQAEDEADYYCSSYAGSNTVVFGGGTKLTVL | 19.3 nM | 102 nM | 0.01 s⁻¹ | 98000 M⁻¹ s⁻¹ | 1.2 min
3 | P7F9 (IgG format) (antibody, V domains shown, IgG format, captured by anti-human Fc) VH: EVQLLESGGGLVQPGGSLRLSCAASGFTFSSYAMSWVRQAPGKGLEWVSAIGGSGGSTYYADSVKGRFTISRDNSKNTLYLQMNSLRAEDTAMYYCARDYYAFSDPAYGGMDVWGQGTLVTVSS VL: NFMLTQPHSVSESPGKTVTISCTRSSGSIASNYVQWYQQKPGQAPVLVVYDDSDRPSGIPERFSGSNSGNTATLTISRVEAGDEADYYCQVWDSSSDHWVFGGGTKLTVL | 13.8 nM | 12 nM | 0.0013 s⁻¹ | 110000 M⁻¹ s⁻¹ | 8.9 min

Now from value to binder:

Row | Kd (mouse FLT3 (mFlt3)) | Kd (human FLT3 (hFLT3)) | koff (human FLT3 (hFLT3)) | kon (human FLT3 (hFLT3)) | t1/2 (human FLT3 (hFLT3)) | Binder
4 | 402 nM | 7.7 nM | 0.0012 s⁻¹ | 160000 M⁻¹ s⁻¹ | 9.3 min | P4C7 (IgG format) (antibody, V domains shown, IgG format, captured by anti-human Fc) VH: QVQLVQSGAEVKKPGSSVKVSCKASGGTFSSYTISWVRQAPGQGLEWMGGIIPAFGIANYAQKFQGRVTITADKSTSTAYMELSSLRSEDTAVYYCAKGGSYSLDYFDIWGQGTLVTVSS VL: EIVLTQSPGTLSLSPGERATLSCRASQYVSASLLAWYQQKPGQAPRLLIYGASTRATGIPDRFSGSGSGTDFTLTISRLEPEDFAVYYCQQYARSSTFGQGTKVEIK
5 | 0.9 nM | 2 nM | 0.0018 s⁻¹ | 990000 M⁻¹ s⁻¹ | 6.6 min | P7H3 (IgG format) (antibody, V domains shown, IgG format, captured by anti-human Fc) VH: EVQLLESGGGLVQPGGSLRLSCAASGFTFSSYAMHWVRQAPGKGLEWVSAISGSGGSTYYADSVKGRFTISRDNSKNTLYLQMNSLRAEDTAVYYCARGTRWWWGDAFDHWGQGTLVTVSS VL: QSVLTQPPSVSVAPGKTARITCGGNNIGSKSVHWYQQKPGQAPVLVIYYDSDRPSGIPERFSGSNSGNTATLTISRVEAGDEADYYCQVWDSSTAWVFGGGTKLTVL
